In patent US11219645B2, “Tumor infiltrating lymphocytes for treatment of cancer” (Duke University, priority 2015, dated 2022):

Assays:
activated CD8+ T cells [1] = assay: C3aR and C5aR antagonists in vitro blockade, IL-10 intracellular staining; assay type: cell-based, mouse; settings: 10 μmol/L of each antagonist, 6 days; FIG. 6J
Experimental: C3aR and C5aR Antagonists In Vitro Blockade: Mouse CD8+ T cells from lymph nodes were enriched using a negative selection kit (Stemcell Technologies; Cat #19853) and activated by plate-bound anti-CD3 (2 μg/mL) and anti-CD28 (1 μg/mL) antibodies for 72 hours. The activated CD8+ T cells were then cultured in complete medium alone (control), 10 μmol/L SB290157 (C3aR antagonist, C3aRA), 10 μmol/L PMX205 (C5aR antagonist, C5aRA), or a combination of 10 μmol/L SB290157 and 10 μmol/L PMX205 for 6 days. The IL10 expression was determined by intracellular staining.

[2] = cancer patients; cited from earlier work
[3] = tested on: CD8+ TILs from human lung tumors; assay: mRNA expression profiling (microarray) of expanded CD8+ TILs; assay type: cell-based; settings: IL-10/IL-2-cultured versus IL-2-cultured CD8+ TILs
Experimental: Microarray Data Analysis: TILs from human lung tumors were in vitro—expanded for 20 days with 6,000 U/mL rIL2 and/or 100 U/mL rIL10. The expanded TILs were activated by incubation in 3 μg/mL anti-CD3/CD28 antibodies for 6 hours. The CD8+ TILs were enriched by negative selection using a kit (Stemcell Technologies). RNA was extracted using TRIzol reagent (Life Technologies) according to the instructions. Microarray analyses were performed using human U133A 2.0 arrays by the Duke University microarray facility. Raw intensities from the CEL files were analyzed using PartekGenomics Suite (Partek Incorporated) with standard background correction to generate an RMA (robust multiarray average intensity) on a log 2 scale for each probe set. Probe sets were filtered for “present” detection in two or more arrays, and the interquartile intensity range was >0.5. The filtered RMA intensities were then analyzed for differential expression using the advanced ANOVA, and differentially expressed genes were generated with/without FDR-adjusted P values using the Benjamini-Hochberg method.

[4] = tested on: TILs from human lung tumors; assay: In vitro expansion of human TILs cultured with IL-2 and/or IL-10; assay type: cell-based; settings: FIG. 5A
Experimental: (§1) The plates were placed in a humidified 37° C. incubator with 5% CO2.
as §1

B16F10 cells = assay: PD-L1 expression in tumor cells after IL-10 stimulation; assay type: cell-based, mouse; settings: 500 U/mL IL-10 for 5 days; FIG. 7E
Experimental: (§2) B16F10 melanoma cells (2×10^5/mouse) were subcutaneously inoculated into wild-type (WT) and C3−/− mice. […] T cells from lymph nodes of naïve mice were activated by incubation with 3 μg/mL anti-CD3/CD28 antibodies for 48 hours with or without 500 U/mL IL-10 and analyzed for PD-1 expression. FIGS. 7C-D show PD-L1 expression on tumor cells developed in WT and C3−/− mice. Bl6F10 melanoma cells (2×10^5/mouse) or E0771 breast cancer cells (1×10^6/mouse) were subcutaneously inoculated into WT and C3−/− mice. PD-L1 expression in CD45-B16 tumor cells (FIG. 7C) and CD45-E0771 cells (FIG. 7D) was measured by flow cytometry at day 12 and day 19, respectively. […] B16F10 cells were cultured with or without 500 U/mL IL-10 for 5 days. PD-L1 expression was analyzed by flow cytometry. […] B16F10 cells were transduced with control virus or single-guide RNA (sgRNA)—targeting PD-L1 virus and selected with puromycin to generate a stable PD-L1-silenced polyclonal cell line. […] Control or PD-L1-silenced B16F10 melanoma cells (4×10^5/mouse) were subcutaneously inoculated into C3−/− and C3−/− Tiger mice. GFP expression in CD3+CD8+ TILs was analyzed by flow cytometry. […] Tumor development was monitored every day starting from day 7 after implantation (n=7, 7, 9, and 8 mice, respectively). […] Significance was determined in FIG. 7H and FIG. 7I by Student t test.*, P≤0.05; **, P≤0.01.

human CD4+ T cells = assay: Impact of IL-10 on effector cytokine production in human CD4+ T cells; assay type: cell-based; settings: 100 U/ml rIL-2 plus 500 U/ml rIL-10 versus rIL-2, 48 hrs; FIG. 9D
Experimental: (§3) B16F10 melanoma cells (2×10^5/mouse) were subcutaneously inoculated into WT and C3−/− mice. The draining lymph nodes and tumors were dissected and treated with collagenase and DNase to obtain single cell suspensions. Leukocytes were pre-gated on CD45 positive cells. FIG. 9A show the CD11b and GR1expression in leukocytes from dLNs as analyzed by flow cytometry. […] WT and C3−/− mice were subcutaneously inoculated with B16F10 cells (2×10^5/mouse). IFNγ- and TNFα-producing CD4+ TILs were analyzed by flow cytometry (n=4 mice per group) at day 12 after tumor inoculation. […] CD4+ T cells were enriched from PBMCs of healthy donors and activated by anti-CD3/CD28 antibodies in vitro for 48 hrs. The activated CD4+ T cells were then cultured with 100 U/ml rIL-2 or 100 U/ml rIL-2 plus 500 U/ml rIL-10 for 48 hrs. The cells were activated using a Cell Activation Cocktail (Biolegend) for 6 hours before intracellular IFNγ and TNFα staining. The expression of IFNγ and TNFα was analyzed by flow cytometry (n=3). […] Mouse CD4+ T cells were enriched from the spleens of naïve mice using a negative selection kit and activated by anti-CD3/CD28 antibodies for 48 hours in vitro. The activated CD4+ T cells were then cultured with 100 U/ml rIL-2 or 100 U/ml rIL-2 plus 500 U/ml rIL-10 for 48 hrs. […] The expression of IFNγ and TNFα was analyzed by flow cytometry (n=3). […]

mouse CD4+ T cells = assay: Impact of IL-10 on effector cytokine production in mouse CD4+ T cells; assay type: cell-based; settings: 100 U/ml rIL-2 plus 500 U/ml rIL-10 versus rIL-2, 48 hrs; FIG. 9E
Experimental: as §3

activated CD8+ T cells [5] = assay: PD-1 expression on CD8+ T cells activated with anti-CD3/CD28 in the presence of IL-10; assay type: cell-based, mouse; settings: 500 U/mL IL-10, 48 hours, 3 μg/mL anti-CD3/CD28; FIG. 7B
Experimental: as §2

[6] = tested on: Human TILs from lung cancer patients; assay: T cell exhaustion markers on CD8+ TILs after IL-10 culture, flow cytometry; assay type: cell-based; settings: IL-2 plus IL-10 versus IL-2, 21 days culture; FIG. 10
Experimental: T cells were activated by anti-CD3/CD28 antibodies for 24 hrs. The surface expression of PD-1, LAG-3 and TIM-3 was analyzed by flow cytometry. FACS profiles are representative of three patients.

NC(N)=NCCC[C@H](NC(=O)COCC(c1ccccc1)c1ccccc1)C(=O)O [SB 290157]
IL-10 expression in activated CD8+ T cells (activated CD8+ T cells [1]): slightly increased IL-10 expression

Pegylated IL-10: Pegylated IL-10 given to cancer patients
adverse effect profile [2]: manageable adverse effect profile

hydrocinnamate-(L-ornithine-proline-D-cyclohexylalanine-tryptophan-arginine) [PMX205]
IL-10 expression in activated CD8+ T cells (activated CD8+ T cells [1]): slightly increased IL-10 expression

B1: IL-10: a cytokine with multiple, pleotropic effects in immunoregulation and inflammation (protein, UniProt P22301 19-178, looked up)
Interleukin-10: SPGQGTQSENSCTHFPGNLPNMLRDLRDAFSRVKTFFQMKDQLDNLLLKESLLEDFKGYLGCQALSEMIQFYLEEVMPQAENQDPDIKAHVNSLGENLKTLRLRLRRCHRFLPCENKSKAVEQVKNAFNKLQEKGIYKAMSEFDIFINYIEAYMTMKIRN
expression of genes of signaling pathways (TCR signaling, Notch signaling, cell cycle, killing activity) ([3]; 20 days, FIG. 5F-I): upregulated genes related to several signaling pathways
expression of chemokine genes ([3]; FIG. 5J): variable depending on the specific chemokine
proliferative capacity of TILs ([4]; IL-10 added with IL-2: 6,000 U/mL rIL-2 plus 100 U/mL rIL-10, TILs from patients with lung cancer): robustly enhanced the proliferative capacity of TILs
proliferative capacity of TILs (entry into the cell cycle) ([4]; IL-10 alone, 100 U/mL rIL-10): did not drive TILs into the cell cycle
PD-L1 expression on tumor cells (B16F10 cells): not changed
effector status (IFNγ and TNFα) of human CD4+ T cells (human CD4+ T cells): did not obviously alter the effector status
effector status (IFNγ and TNFα) of mouse CD4+ T cells (mouse CD4+ T cells): did not obviously alter the effector status
PD-1 expression on activated CD8+ T cells (activated CD8+ T cells [5]): did not modulate PD-1 expression
expression of T-cell exhaustion markers (PD-1, LAG3, TIM3) [6]: not altered
